Four molecules from patent US20240115720A1 (Memorial Sloan Kettering, published 2024) can be followed below.

Assay [1] deals with T1, full-length human DLL3 on cells (human, UniProt Q9NYJ7 27-618).
T1 sequence: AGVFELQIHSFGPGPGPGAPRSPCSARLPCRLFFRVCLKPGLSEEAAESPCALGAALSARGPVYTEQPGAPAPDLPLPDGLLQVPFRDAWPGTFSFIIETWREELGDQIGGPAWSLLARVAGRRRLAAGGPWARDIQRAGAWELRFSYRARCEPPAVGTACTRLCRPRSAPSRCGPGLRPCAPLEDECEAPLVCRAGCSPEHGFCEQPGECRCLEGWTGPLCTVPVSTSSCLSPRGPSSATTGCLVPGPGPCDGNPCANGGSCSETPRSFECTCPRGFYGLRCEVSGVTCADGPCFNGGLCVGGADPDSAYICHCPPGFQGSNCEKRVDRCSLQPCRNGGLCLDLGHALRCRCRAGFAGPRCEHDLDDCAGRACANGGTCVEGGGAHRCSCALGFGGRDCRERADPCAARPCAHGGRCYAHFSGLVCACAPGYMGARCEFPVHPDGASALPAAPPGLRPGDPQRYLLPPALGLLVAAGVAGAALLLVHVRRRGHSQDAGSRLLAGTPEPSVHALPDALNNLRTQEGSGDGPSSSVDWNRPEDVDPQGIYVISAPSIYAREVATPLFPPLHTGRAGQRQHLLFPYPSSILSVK
As to the kind of experiment: cell-based or functional assay.

For assay [2], the target named is T1, full-length human DLL3 on cells. Briefly: cell-based or functional assay. This is another data set of the same source.
Assay [3] shares this target. Briefly: cell-based or functional assay. This is another data set of the same source.
Assay [4] shares this target. Briefly: flow cytometry, NCI-H82 cells (endogenous human DLL3), mAb 10 µg/ml. The method, then: (§1) For this purpose, HEK293 cells were transfected with plasmid DNA encoding full-length human, mouse or cynomolgous DLL3 and used in the experiment. Briefly […] transfected HEK293 cells or NCI-H82 primary cells were added in FACS buffer PBS 0.5% BSA to the wells of a 96 well U bottom plate and purified monoclonal added to 10 μg/ml. After 30 minutes incubation at 4° C. the cells were washed 3 times in FACS buffer and incubated with a PE labelled F(ab)2 anti-mouse IgG H and L 2nd stage. After another 30 minutes incubation at 4° C. the cells were washed three times in FACS buffer and analyzed on the flow cytometer. Data are presented at the ratio of the Mean Fluorescent Intensity for the monoclonal divided by the background staining with the 2nd stage.
On the technique in general: A flow cytometer gives signals particle by particle.

Assay [5] has the same target. As to the kind of experiment: flow cytometry, HEK293 cells transfected with full-length human DLL3, mAb 10 µg/ml. The method, then:
as §1

Assay [6] concerns the target T2, full-length mouse DLL3 on HEK293 cells (mouse, UniProt O88516 33-584).
T2 construct: DLL3'; also called 293 mDLL3
T2 sequence: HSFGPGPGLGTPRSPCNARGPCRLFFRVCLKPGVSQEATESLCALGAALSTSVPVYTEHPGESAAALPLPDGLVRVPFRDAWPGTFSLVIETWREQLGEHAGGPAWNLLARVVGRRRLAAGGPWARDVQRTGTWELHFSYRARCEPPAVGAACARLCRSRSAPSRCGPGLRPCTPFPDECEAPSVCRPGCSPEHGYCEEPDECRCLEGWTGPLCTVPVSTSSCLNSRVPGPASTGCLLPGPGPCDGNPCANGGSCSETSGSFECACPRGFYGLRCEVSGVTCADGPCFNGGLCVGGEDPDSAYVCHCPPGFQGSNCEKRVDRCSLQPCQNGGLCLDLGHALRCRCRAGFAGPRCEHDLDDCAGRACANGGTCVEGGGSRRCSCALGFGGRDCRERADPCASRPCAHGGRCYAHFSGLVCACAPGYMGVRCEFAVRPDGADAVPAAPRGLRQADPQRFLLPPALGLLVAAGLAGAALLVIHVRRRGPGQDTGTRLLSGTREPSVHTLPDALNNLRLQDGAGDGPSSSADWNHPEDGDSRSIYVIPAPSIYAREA
Briefly: flow cytometry, HEK293 cells transfected with full-length mouse DLL3, mAb 10 µg/ml. The method, then:
as §1

Assay [7] deals with T3, full-length cynomolgous DLL3 on HEK293 cells (cynomolgous, UniProt A0A2K5WSR1 27-585).
T3 construct: also called 293 cyno DLL3
T3 sequence: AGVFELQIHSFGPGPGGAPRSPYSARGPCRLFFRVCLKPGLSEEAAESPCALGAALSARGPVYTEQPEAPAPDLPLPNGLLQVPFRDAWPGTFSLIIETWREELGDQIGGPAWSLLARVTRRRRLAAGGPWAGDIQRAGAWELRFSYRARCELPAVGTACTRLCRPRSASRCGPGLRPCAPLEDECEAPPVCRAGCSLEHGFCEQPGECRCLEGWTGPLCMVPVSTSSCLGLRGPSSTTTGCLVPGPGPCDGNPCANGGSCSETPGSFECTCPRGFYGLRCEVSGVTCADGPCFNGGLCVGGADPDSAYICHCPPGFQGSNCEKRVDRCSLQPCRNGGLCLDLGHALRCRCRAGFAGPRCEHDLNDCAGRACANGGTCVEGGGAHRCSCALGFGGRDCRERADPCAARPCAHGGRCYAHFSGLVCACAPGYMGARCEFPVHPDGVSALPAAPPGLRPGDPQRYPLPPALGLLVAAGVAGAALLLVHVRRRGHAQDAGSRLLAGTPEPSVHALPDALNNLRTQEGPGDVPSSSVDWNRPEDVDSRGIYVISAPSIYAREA
Briefly: flow cytometry, HEK293 cells transfected with full-length cynomolgous DLL3, mAb 10 µg/ml. The method, then: as §1

B1: 6-G23-F (antibody, V domains shown)
VH: QVQLVQSGAEVKKPGASVKVSCKASGYTFTSYYIHWVRQAPGQGLEWMGIIDPSDGSTNYAQKFQGRVTMTRDTSTSTVYMELSSLRSEDTAVYYCARDREYNYYGLDVWGQGTTVTVSS
VL: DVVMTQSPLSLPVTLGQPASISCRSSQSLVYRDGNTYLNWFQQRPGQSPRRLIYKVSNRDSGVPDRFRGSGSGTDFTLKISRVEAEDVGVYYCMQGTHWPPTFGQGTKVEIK
notes: also called 6-G23-F monoclonal antibody
In the case of B1, in assay [1], the “MFI Ratio (4°C / 37°C staining of NCI-H82 cells; relative measure of internalization)” value came out at 1.67. The “Dy light Dy650 fluorescence in the quenching internalization assay on NCI-H82 cells (% of the Control Reference Monoclonal Antibody)” value in assay [2] was 76.5 % of the Control Reference Monoclonal Antibody. For the same molecule, in assay [3], the “FAB ZAP % SC16 Max Killing (NCI-H82 cells)” value (from here on “FAB ZAP % SC16 Max Killing”) is 94 % SC16 Max Killing. In addition, the “ratio of the Mean Fluorescent Intensity for the monoclonal divided by the background staining with the 2nd stage” value in assay [4] is 11.1; in assay [5] it was 6.33; in assay [6], 3.97; in assay [7], 13.1.

B2: 2-C8-A (antibody, V domains shown)
VH: EVQLVESGGGLVQPGGSQRLSCAASGFTFSSYWMNWVRQAPGKGLEWVANIKEDGSEKYYVDSVKGRFTISRDNAKNSLYLQMNSLRAEDTAVYYCARDPGWAPFDYWGQGTLVTVSS
VL: DIQMSQSPSSLSASVGDRVTITCRASQGISNYLAWFQQKPGKAPKSLIYAASSLQSGVPSKFSGSGSGTDFTLAISSLQPEDFATYYCQQYNSFPYTFGQGTTLEIK
notes: also called 2-C8-A monoclonal antibody
Turning to B2, the “MFI Ratio (4°C / 37°C staining of NCI-H82 cells; relative measure of internalization)” value in assay [1] came out at 1.76. Further, in assay [2], the “Dy light Dy650 fluorescence in the quenching internalization assay on NCI-H82 cells (% of the Control Reference Monoclonal Antibody)” value is 62.9 % of the Control Reference Monoclonal Antibody. In addition, in assay [3], the “FAB ZAP % SC16 Max Killing” value was found to be 89 % SC16 Max Killing. The “ratio of the Mean Fluorescent Intensity for the monoclonal divided by the background staining with the 2nd stage” value in assay [4] was 11.9; in assay [5], 7.71; in assay [6] it was 1.5; in assay [7], 15.

B3: 7-I1-B (antibody, V domains shown)
VH: EVQLVESGGGLVKPGGSLRLSCAASGFTFSNTWMSWVRQAPGKGLEWVGRIKSKSDGGTTDYAAPVKGRFTISRDDSKNTLYLQMNSLKTEDTAVYYCTQYYWNSFDYWGQGTLVTVSS
VL: not shown
notes: also called 7-I1-B mAb
With B3, the “MFI Ratio (4°C / 37°C staining of NCI-H82 cells; relative measure of internalization)” value in assay [1] was found to be 1.68. Further, the “Dy light Dy650 fluorescence in the quenching internalization assay on NCI-H82 cells (% of the Control Reference Monoclonal Antibody)” value in assay [2] is 70.1 % of the Control Reference Monoclonal Antibody. Further, in assay [3], the “FAB ZAP % SC16 Max Killing” value stood at 97 % SC16 Max Killing. Moreover, the “ratio of the Mean Fluorescent Intensity for the monoclonal divided by the background staining with the 2nd stage” value came to 19.2 in assay [4], 9.74 in assay [5], 4.7 in assay [6] and 18.7 in assay [7].

B4: 10-O18-A (antibody, V domains shown)
VH: QVQLQESGPGLVKPSETLSLTCTVSGGSINSYYWSWIRQPPGKGLEWIGYIFYSGITNYNPSLKSRVTISLDTSKNQFSLKLSSVTAADTAVYYCARIGVAGFYFDYWGQGTLVTVSS
VL: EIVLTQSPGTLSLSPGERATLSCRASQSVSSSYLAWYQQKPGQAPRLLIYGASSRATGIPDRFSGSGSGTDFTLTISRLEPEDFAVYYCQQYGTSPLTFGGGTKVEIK
notes: Hybridoma monoclonal from Ablexis AlivaMAb Kappa mice; it was captured on anti-mouse Fc sensors and detected with anti-mouse IgG / anti-mouse IgG1 reagents; also called 10-O18-A monoclonal antibody
With B4, in assay [1], the “MFI Ratio (4°C / 37°C staining of NCI-H82 cells; relative measure of internalization)” value worked out at 1.56. The “ratio of the Mean Fluorescent Intensity for the monoclonal divided by the background staining with the 2nd stage” value in assay [4] amounted to 9.4; in assay [5], 4.74; in assay [6], 0.99; in assay [7] it was 9.85.
